Measurements as given in publication PMC10212922, “A blocking monoclonal antibody reveals dimerization of intracellular domains of ALK2 associated with genetic disorders” (Nature Communications, 2023).

Key:
V5-tagged mouse ALK2 = V5-tagged mouse ALK2 (mouse, UniProt P37172); assay: cell-based or functional assay
[1] = biological target: T1, His-tagged and Fc-tagged mouse ALK2 protein (Sino Biological) (mouse, UniProt P37172 21-123); assay: SPR
T1 chain: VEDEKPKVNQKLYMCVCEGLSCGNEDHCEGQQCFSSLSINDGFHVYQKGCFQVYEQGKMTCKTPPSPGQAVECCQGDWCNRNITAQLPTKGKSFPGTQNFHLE

[2] = biological target: T2, His-tagged and Fc-tagged human ALK2 protein (Sino Biological) (human, UniProt Q04771 21-123); assay: SPR
T2 chain: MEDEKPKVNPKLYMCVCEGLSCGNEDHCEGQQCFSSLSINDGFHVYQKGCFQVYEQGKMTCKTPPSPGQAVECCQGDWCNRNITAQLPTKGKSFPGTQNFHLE

[3] = biological target: T3, His-tagged and Fc-tagged human ALK2 protein (Sino Biological) (Homo sapiens, UniProt Q04771); assay: SPR; BIAcore T200; anti-histidine antibody immobilised on a CM5 chip, His- and Fc-tagged ALK2 (10 μg/ml) captured; antibody 0.195-50 nM injected, single-cycle kinetics, 300 s association, 1800 s dissociation, 30 μl/min; bivalent analyte model; the methods speak of avidity; settings: both partners purified
T3 construct: activin receptor-like kinase 2 (ALK2), human; source: bought: Sino Biological Inc

[4] = biological target: T4, His-tagged and Fc-tagged mouse ALK2 protein (Sino Biological) (Mus musculus, UniProt P37172); assay: as above; settings: both partners purified
T4 construct: activin receptor-like kinase 2 (ALK2), mouse, extracellular domain; also called 6x His-tagged mouse ALK2 ECD fused to human IgG Fc; source: bought: Sino Biological Inc

Sequence of V5-tagged mouse ALK2 (P37172 21-509): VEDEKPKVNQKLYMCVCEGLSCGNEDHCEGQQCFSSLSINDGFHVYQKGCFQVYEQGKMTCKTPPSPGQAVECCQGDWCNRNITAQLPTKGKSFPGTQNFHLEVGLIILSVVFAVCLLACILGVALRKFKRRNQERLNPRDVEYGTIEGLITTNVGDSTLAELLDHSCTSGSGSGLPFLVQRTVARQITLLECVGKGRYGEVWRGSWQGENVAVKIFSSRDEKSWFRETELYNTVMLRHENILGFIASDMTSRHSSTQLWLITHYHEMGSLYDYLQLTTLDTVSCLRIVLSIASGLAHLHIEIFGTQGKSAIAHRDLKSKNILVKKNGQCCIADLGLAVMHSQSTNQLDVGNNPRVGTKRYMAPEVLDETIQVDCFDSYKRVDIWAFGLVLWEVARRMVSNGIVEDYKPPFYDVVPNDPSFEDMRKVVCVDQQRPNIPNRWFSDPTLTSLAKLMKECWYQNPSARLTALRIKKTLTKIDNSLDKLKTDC

IC50 of Rm0443 against ALP activity induced by 300 ng/ml BMP7 in C2C12 cells (endogenous ALK2), day 3 (V5-tagged mouse ALK2): 0.017 mg/L
IC50 of Rm0443 against BMP-specific luciferase reporter activity induced by 300 ng/ml BMP7 in C2C12 cells (endogenous ALK2), overnight (V5-tagged mouse ALK2): 0.216 mg/L
koff [1]: 0.00563 s⁻¹
koff [2]: 0.00576 s⁻¹
Kd [3]: 5.6 nM
Kd [4]: 5.1 nM
B1: Rm0443, rat anti-ALK2 monoclonal antibody clone #0443 (antibody, V domains shown)
VH: EVQLVESGGGLVQPGRSLKLSCLASGSTFSNYGMKWIRQAPGKGLEWVASISRSSTYIYYADTVKGRFTISRDNARNTLYLQMTSLRSEDTALYYCAAAISTPFYWYFDFWGPGTVVTVSS
VL: EIVLTQSPTTMAASPGEKVTLNCLASSSVSYMTWYQQKSGASPKLWIYGTSNLASGVPNRFSGSGSGTSYSLAISSMEAEDVATYYCLHLTSYPPYTFGAGTKLELK
notes: variable region as in the heavy chain of the chimeric Fab m2 (PDB 7YRU); variable region as in the light chain of the chimeric Fab m2 (PDB 7YRU); Whole rat IgG from the hybridoma; PDB 7YRU holds the rat variable regions on human IgG1 kappa constant regions; source: rat hybridoma, purified from serum-free conditioned medium (protein G column)
